Where no end group is shown, it is not given here. The star is where a group is joined. FITC = O=C1OC2(c3ccc(O)cc3Oc3cc(O)ccc32)c2ccc(NC(=S)*)cc21; Ahx = NCCCCCC(=O)O

This is an account of results in article doi:10.1101/2025.05.20.655083 (2025).

Common to all, as to experiment: FP
The target in assay [1] is human importin α1 ΔIBB (human).
In assay [2] the target is human importin α7 ΔIBB (human).
In assay [3] the target is human importin α5 ΔIBB (human).
Assay [4] addresses mouse importin α2 ΔIBB (mouse, UniProt P52293 70-529).

Chain of human importin α7 ΔIBB (human) (chain, as listed by the source mutant): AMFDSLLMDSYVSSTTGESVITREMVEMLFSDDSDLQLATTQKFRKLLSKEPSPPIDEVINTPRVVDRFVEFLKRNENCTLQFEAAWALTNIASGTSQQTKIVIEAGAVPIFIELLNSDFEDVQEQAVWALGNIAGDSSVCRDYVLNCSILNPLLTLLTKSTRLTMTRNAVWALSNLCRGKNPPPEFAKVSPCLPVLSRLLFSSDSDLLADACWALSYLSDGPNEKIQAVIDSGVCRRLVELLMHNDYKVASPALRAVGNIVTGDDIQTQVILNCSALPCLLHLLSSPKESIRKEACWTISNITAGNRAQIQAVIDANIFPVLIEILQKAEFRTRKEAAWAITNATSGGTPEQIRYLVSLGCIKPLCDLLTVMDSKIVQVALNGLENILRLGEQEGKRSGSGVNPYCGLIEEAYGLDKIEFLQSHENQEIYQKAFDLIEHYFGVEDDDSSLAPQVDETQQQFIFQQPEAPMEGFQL
Chain of human importin α5 ΔIBB (human) (chain, as listed by the source mutant): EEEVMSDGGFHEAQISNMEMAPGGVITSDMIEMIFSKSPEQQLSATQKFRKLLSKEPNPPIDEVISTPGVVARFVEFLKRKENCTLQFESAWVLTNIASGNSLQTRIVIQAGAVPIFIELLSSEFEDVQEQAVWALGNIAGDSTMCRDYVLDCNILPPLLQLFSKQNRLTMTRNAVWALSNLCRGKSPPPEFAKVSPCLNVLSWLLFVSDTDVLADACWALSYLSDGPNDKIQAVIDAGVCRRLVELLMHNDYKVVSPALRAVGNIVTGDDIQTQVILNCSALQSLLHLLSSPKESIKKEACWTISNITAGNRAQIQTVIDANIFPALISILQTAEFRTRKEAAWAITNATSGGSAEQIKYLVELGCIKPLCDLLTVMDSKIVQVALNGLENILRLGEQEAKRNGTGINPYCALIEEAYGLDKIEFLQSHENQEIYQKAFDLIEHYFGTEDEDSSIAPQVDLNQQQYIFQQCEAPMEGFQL

Consider {FITC-Ahx}-IAEYKRRHNIGSDGLPNKRRRCLF [BSB PyV-LTA;NLS peptide (Black Sea Bass polyomavirus large tumor antigen residues 660-683)], for which the Kd was determined as 31 nM in assay [1], 2 nM in assay [2], 12 nM in assay [3] and 4 nM in assay [4].
